From patent US20230044037A1 (INTERVET, published 2023) come the findings set out here.

This assay has as its target T1, canine IL-4 receptor alpha (IL-4Rα) on DH82 cells (canine).
T1 construct: Endogenous receptor of the DH82 cells in the STAT-6 assay; also called canine IL-4Rα; IL-4R alpha
T1 chain: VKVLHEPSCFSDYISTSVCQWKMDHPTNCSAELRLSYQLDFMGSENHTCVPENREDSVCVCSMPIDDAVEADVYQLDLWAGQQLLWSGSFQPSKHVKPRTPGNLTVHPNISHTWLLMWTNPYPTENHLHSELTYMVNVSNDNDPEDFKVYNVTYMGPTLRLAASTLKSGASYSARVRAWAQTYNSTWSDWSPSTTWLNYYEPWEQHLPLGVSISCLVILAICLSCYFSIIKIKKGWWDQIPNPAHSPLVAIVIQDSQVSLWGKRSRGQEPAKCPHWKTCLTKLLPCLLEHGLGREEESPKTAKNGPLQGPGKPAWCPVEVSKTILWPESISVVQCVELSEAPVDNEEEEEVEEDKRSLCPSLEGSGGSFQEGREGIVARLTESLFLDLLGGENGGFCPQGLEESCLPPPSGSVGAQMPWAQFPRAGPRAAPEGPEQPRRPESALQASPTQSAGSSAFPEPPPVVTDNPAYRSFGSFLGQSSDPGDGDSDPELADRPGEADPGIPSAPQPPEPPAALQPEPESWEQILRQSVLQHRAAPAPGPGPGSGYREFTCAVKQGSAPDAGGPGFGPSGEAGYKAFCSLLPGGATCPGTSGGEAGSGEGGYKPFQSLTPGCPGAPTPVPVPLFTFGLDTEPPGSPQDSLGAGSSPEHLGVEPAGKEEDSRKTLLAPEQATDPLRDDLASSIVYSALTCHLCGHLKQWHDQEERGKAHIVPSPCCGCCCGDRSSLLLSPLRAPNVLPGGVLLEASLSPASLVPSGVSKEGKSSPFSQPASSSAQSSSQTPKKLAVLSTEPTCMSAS
The experiment in a line: told from inhibition of IL-4- and IL-13-mediated STAT-6 phosphorylation in DH82 cells (AlphaLISA). (In general: Alpha assays give light when donor and acceptor beads are brought close together.)

B1: c152H11-H3L3 (c152H11VL3-cCLk-s/c152H11VH3-cIgG-Bm) (antibody, V domains shown)
VH: EVQLVESGGDLVKPGGSLRLSCAASGFTFSSYGMSWVRQAPDKRLQWVATISRGGDYTYYPDSVKGRFTISRDNAKNTLYLQMNSLRAEDTAMYYCARGTLNNRGFASWGQGTLVTVSS
VL: EIVMTQSPASLSLSQEEKVTITCKASQNVGTNVAWYQQKPGQAPKLLIYSASYRYSGLPDRFSGSGSGTDFSFTISSLEPEDVAEFFCQQYNSYPYTFGQGTKLEIKR
notes: Caninized anti-canine IL-4R alpha antibody: VH3 heavy chain on modified canine IgG-B (IgG-Bm), kappa light chain L3
With B1, the binding result is given as “binds”.
